# B1: 2A-3 #1 (bispecific antibody, human IgG1, kappa)
# heavy: not shown
# chain: DIVMTQAPLSLPVSLGDQASISCRSSQSIVHSNGNTYLEWYLQKPGQSPKLLIYKVSNRFSGVPDRFSGSGSGTDFTLKISRVEAEDLGIYYCFQGSHVPPTFGGGTKLEIKRTVAAPSVFIFPPSDEQLKSGTASVVCLLNNFYPREAKVQWKVDNALQSGNSQESVTEQDSKDSTYSLSSTLTLSKADYEKHKVYACEVTHQGLSSPVTKSFNRGECGGGGSEVQLVQSGAEVKKPGSSVKVSCKASGYIFTDYNMDWVRQAPGQGLEWIGDINPDADTTSYNEKFKGRATLTVDKSTSTAYMELSSLRSEDTAVYYCARGGYSGSSYYHPMDYWGQGTLVTVSSGGGGSGGGGSGGGGSDIQMTQSPSSVSASVGDRVTITCKSSQSLLYSTNQKNYLAWYQQKPGKAPKLLIYWASTRESGVPSRFSGSGSGTDFTLTISSLQPEDFATYYCQQYFIYPRTFGQGTKVEIKGGGGSGGGGSGGGGSGGGGSDIVMTQAPLSLPVSLGDQASISCRSSQSIVHSNGNTYLEWYLQKPGQSPKLLIYKVSNRFSGVPDRFSGSGSGTDFTLKISRVEAEDLGIYYCFQGSHVPPTFGGGTKLEIKRTVAAPSVFIFPPSDEQLKSGTASVVCLLNNFYPREAKVQWKVDNALQSGNSQESVTEQDSKDSTYSLSSTLTLSKADYEKHKVYACEVTHQGLSSPVTKSFNRGEC
# notes: also called Gen 2A construct #1; VH first
# B2: 2A-3 #2 (bispecific antibody, human IgG1, kappa)
# heavy: not shown
# chain: DIVMTQAPLSLPVSLGDQASISCRSSQSIVHSNGNTYLEWYLQKPGQSPKLLIYKVSNRFSGVPDRFSGSGSGTDFTLKISRVEAEDLGIYYCFQGSHVPPTFGGGTKLEIKRTVAAPSVFIFPPSDEQLKSGTASVVCLLNNFYPREAKVQWKVDNALQSGNSQESVTEQDSKDSTYSLSSTLTLSKADYEKHKVYACEVTHQGLSSPVTKSFNRGECGGGGSGGGGSEVQLVQSGAEVKKPGSSVKVSCKASGYIFTDYNMDWVRQAPGQGLEWIGDINPDADTTSYNEKFKGRATLTVDKSTSTAYMELSSLRSEDTAVYYCARGGYSGSSYYHPMDYWGQGTLVTVSSGGGGSGGGGSGGGGSDIQMTQSPSSVSASVGDRVTITCKSSQSLLYSTNQKNYLAWYQQKPGKAPKLLIYWASTRESGVPSRFSGSGSGTDFTLTISSLQPEDFATYYCQQYFIYPRTFGQGTKVEIKGGGGSGGGGSGGGGSGGGGSDIVMTQAPLSLPVSLGDQASISCRSSQSIVHSNGNTYLEWYLQKPGQSPKLLIYKVSNRFSGVPDRFSGSGSGTDFTLKISRVEAEDLGIYYCFQGSHVPPTFGGGTKLEIKRTVAAPSVFIFPPSDEQLKSGTASVVCLLNNFYPREAKVQWKVDNALQSGNSQESVTEQDSKDSTYSLSSTLTLSKADYEKHKVYACEVTHQGLSSPVTKSFNRGEC
# notes: also called Gen 2A construct #2; VH first
# B3: 2A-3 #4 (bispecific antibody, human IgG1, kappa)
# heavy: not shown
# chain: DIVMTQAPLSLPVSLGDQASISCRSSQSIVHSNGNTYLEWYLQKPGQSPKLLIYKVSNRFSGVPDRFSGSGSGTDFTLKISRVEAEDLGIYYCFQGSHVPPTFGGGTKLEIKRTVAAPSVFIFPPSDEQLKSGTASVVCLLNNFYPREAKVQWKVDNALQSGNSQESVTEQDSKDSTYSLSSTLTLSKADYEKHKVYACEVTHQGLSSPVTKSFNRGECGGGGSEVQLVQSGAEVKKPGSSVKVSCKASGYIFTDYNMDWVRQAPGQGLEWIGDINPDADTTSYNEKFKGRATLTVDKSTSTAYMELSSLRSEDTAVYYCARGGYSGSSYYHPMDYWGQGTLVTVSSGGGGSGGGGSGGGGSDIQMTQSPSSVSASVGDRVTITCKSSQSLLYSTNQKNYLAWYQQKPGKAPKLLIYWASTRESGVPSRFSGSGSGTDFTLTISSLQPEDFATYYCQQYFIYPRTFGQGTKVEIKGGGGSGGGGSGGGGSGGGGSGGGGSDIVMTQAPLSLPVSLGDQASISCRSSQSIVHSNGNTYLEWYLQKPGQSPKLLIYKVSNRFSGVPDRFSGSGSGTDFTLKISRVEAEDLGIYYCFQGSHVPPTFGGGTKLEIKRTVAAPSVFIFPPSDEQLKSGTASVVCLLNNFYPREAKVQWKVDNALQSGNSQESVTEQDSKDSTYSLSSTLTLSKADYEKHKVYACEVTHQGLSSPVTKSFNRGEC
# notes: also called Gen 2A construct #4; VH first
# B4: 2A-3 #7 (bispecific antibody, human IgG1, kappa)
# heavy: not shown
# chain: DIVMTQAPLSLPVSLGDQASISCRSSQSIVHSNGNTYLEWYLQKPGQSPKLLIYKVSNRFSGVPDRFSGSGSGTDFTLKISRVEAEDLGIYYCFQGSHVPPTFGGGTKLEIKRTVAAPSVFIFPPSDEQLKSGTASVVCLLNNFYPREAKVQWKVDNALQSGNSQESVTEQDSKDSTYSLSSTLTLSKADYEKHKVYACEVTHQGLSSPVTKSFNRGECGGGGSGGGGSGGGGSGGGGSGGGGSEVQLVQSGAEVKKPGSSVKVSCKASGYIFTDYNMDWVRQAPGQGLEWIGDINPDADTTSYNEKFKGRATLTVDKSTSTAYMELSSLRSEDTAVYYCARGGYSGSSYYHPMDYWGQGTLVTVSSGGGGSGGGGSGGGGSDIQMTQSPSSVSASVGDRVTITCKSSQSLLYSTNQKNYLAWYQQKPGKAPKLLIYWASTRESGVPSRFSGSGSGTDFTLTISSLQPEDFATYYCQQYFIYPRTFGQGTKVEIKGGGGSGGGGSGGGGSGGGGSGGGGSDIVMTQAPLSLPVSLGDQASISCRSSQSIVHSNGNTYLEWYLQKPGQSPKLLIYKVSNRFSGVPDRFSGSGSGTDFTLKISRVEAEDLGIYYCFQGSHVPPTFGGGTKLEIKRTVAAPSVFIFPPSDEQLKSGTASVVCLLNNFYPREAKVQWKVDNALQSGNSQESVTEQDSKDSTYSLSSTLTLSKADYEKHKVYACEVTHQGLSSPVTKSFNRGEC
# notes: also called Gen 2A construct #7; VH first
# B5: 2A-3 #9 (bispecific antibody, human IgG1, kappa)
# heavy: not shown
# chain: DIVMTQAPLSLPVSLGDQASISCRSSQSIVHSNGNTYLEWYLQKPGQSPKLLIYKVSNRFSGVPDRFSGSGSGTDFTLKISRVEAEDLGIYYCFQGSHVPPTFGGGTKLEIKRTVAAPSVFIFPPSDEQLKSGTASVVCLLNNFYPREAKVQWKVDNALQSGNSQESVTEQDSKDSTYSLSSTLTLSKADYEKHKVYACEVTHQGLSSPVTKSFNRGECGGGGSGGGGSDIQMTQSPSSVSASVGDRVTITCKSSQSLLYSTNQKNYLAWYQQKPGKAPKLLIYWASTRESGVPSRFSGSGSGTDFTLTISSLQPEDFATYYCQQYFIYPRTFGQGTKVEIKGGGGSGGGGSGGGGSEVQLVQSGAEVKKPGSSVKVSCKASGYIFTDYNMDWVRQAPGQGLEWIGDINPDADTTSYNEKFKGRATLTVDKSTSTAYMELSSLRSEDTAVYYCARGGYSGSSYYHPMDYWGQGTLVTVSSGGGGSGGGGSGGGGSGGGGSDIVMTQAPLSLPVSLGDQASISCRSSQSIVHSNGNTYLEWYLQKPGQSPKLLIYKVSNRFSGVPDRFSGSGSGTDFTLKISRVEAEDLGIYYCFQGSHVPPTFGGGTKLEIKRTVAAPSVFIFPPSDEQLKSGTASVVCLLNNFYPREAKVQWKVDNALQSGNSQESVTEQDSKDSTYSLSSTLTLSKADYEKHKVYACEVTHQGLSSPVTKSFNRGEC
# notes: also called Gen 2A construct #9; VL first
# B6: 2A-3 #10 (bispecific antibody, human IgG1, kappa)
# heavy: not shown
# chain: DIVMTQAPLSLPVSLGDQASISCRSSQSIVHSNGNTYLEWYLQKPGQSPKLLIYKVSNRFSGVPDRFSGSGSGTDFTLKISRVEAEDLGIYYCFQGSHVPPTFGGGTKLEIKRTVAAPSVFIFPPSDEQLKSGTASVVCLLNNFYPREAKVQWKVDNALQSGNSQESVTEQDSKDSTYSLSSTLTLSKADYEKHKVYACEVTHQGLSSPVTKSFNRGECGGGGSGGGGSGGGGSDIQMTQSPSSVSASVGDRVTITCKSSQSLLYSTNQKNYLAWYQQKPGKAPKLLIYWASTRESGVPSRFSGSGSGTDFTLTISSLQPEDFATYYCQQYFIYPRTFGQGTKVEIKGGGGSGGGGSGGGGSEVQLVQSGAEVKKPGSSVKVSCKASGYIFTDYNMDWVRQAPGQGLEWIGDINPDADTTSYNEKFKGRATLTVDKSTSTAYMELSSLRSEDTAVYYCARGGYSGSSYYHPMDYWGQGTLVTVSSGGGGSGGGGSGGGGSGGGGSDIVMTQAPLSLPVSLGDQASISCRSSQSIVHSNGNTYLEWYLQKPGQSPKLLIYKVSNRFSGVPDRFSGSGSGTDFTLKISRVEAEDLGIYYCFQGSHVPPTFGGGTKLEIKRTVAAPSVFIFPPSDEQLKSGTASVVCLLNNFYPREAKVQWKVDNALQSGNSQESVTEQDSKDSTYSLSSTLTLSKADYEKHKVYACEVTHQGLSSPVTKSFNRGEC
# notes: also called Gen 2A construct #10; VL first
# Target: T1, human transferrin receptor 1 (hTfR1) on cell surfaces (human, UniProt P02786 1-760)
# T1 construct: Endogenous receptor on hCMEC/D3, THP-1, K562 and Ramos cells; also called CD71; endogenous hTfR1
# T1 sequence (P02786 whole entry): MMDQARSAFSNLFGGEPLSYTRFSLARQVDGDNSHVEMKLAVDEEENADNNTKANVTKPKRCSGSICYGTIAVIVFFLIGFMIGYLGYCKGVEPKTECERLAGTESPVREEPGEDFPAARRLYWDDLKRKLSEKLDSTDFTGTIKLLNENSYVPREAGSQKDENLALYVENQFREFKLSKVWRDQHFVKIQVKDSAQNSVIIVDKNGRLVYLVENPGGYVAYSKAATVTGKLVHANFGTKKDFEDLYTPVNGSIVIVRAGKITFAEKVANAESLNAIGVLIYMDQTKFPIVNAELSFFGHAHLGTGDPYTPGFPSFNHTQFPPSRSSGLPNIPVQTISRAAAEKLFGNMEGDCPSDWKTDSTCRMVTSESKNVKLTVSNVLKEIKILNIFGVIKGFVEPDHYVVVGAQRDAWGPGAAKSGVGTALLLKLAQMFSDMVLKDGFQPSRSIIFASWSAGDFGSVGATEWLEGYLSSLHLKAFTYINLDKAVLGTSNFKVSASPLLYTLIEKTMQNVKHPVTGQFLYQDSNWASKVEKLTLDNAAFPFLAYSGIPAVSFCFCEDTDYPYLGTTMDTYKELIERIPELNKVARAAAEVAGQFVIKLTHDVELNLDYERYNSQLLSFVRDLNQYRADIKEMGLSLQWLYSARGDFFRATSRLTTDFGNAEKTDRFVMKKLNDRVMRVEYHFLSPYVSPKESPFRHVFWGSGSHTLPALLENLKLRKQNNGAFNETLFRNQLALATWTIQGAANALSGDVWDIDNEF
# Test: flow cytometry on Ramos cells (hTfR1 on the surface), Fc receptors blocked, overnight at 4 °C, detection with anti-human IgG-Alexa Fluor 488
# Procedure: Binding to hTfR1 on cells was measured on the immortalized human B lymphocyte cell line Ramos (Sigma, cat: 85030802). This cell line is known for expressing high levels of hTfR1 on the cell surface. Fcγ receptors were blocked using Fc receptor blocker (Innovex biosciences, #NB309-4X-40) for 30 min at 4° C., after which the cells were washed in PBS. The cells were seeded in a 96 well V bottom plate (#249570, Thermo Scientific Nunc), and serially diluted Gen 2A constructs were added and the plate was incubated at 4° C. overnight. The cells were washed with PBS with 1% BSA and then fixed with freshly prepared 4% formaldehyde (Thermo Scientific Pierce, #28906) diluted in PBS for 15 min at room temperature. The cells were washed with PBS containing 1% BSA, and then stained. […] Staining was carried out for 30 min at 4° C. After incubation with the detection reagent, cells were washed with PBS containing 1% BSA. The cells were finally resuspended in 200 μl PBS with 1% BSA and acquired using a BD FACSLyric flow cytometer system (BD Biosciences). Samples were analyzed using flowJo software (BD Biosciences).
row,Binder,binding result
1,B1,binds
2,B2,binds
3,B3,binds
4,B4,binds
5,B5,binds
6,B6,binds

# From US20260274980A1 (BIOARCTIC, published 2026)
